In patent publication US20200283521A1 (GRANULAR THERAPEUTICS, published 2020):

How the values were obtained:
Assay in all cases: cell array, transfected fixed HEK293 cells
PPT1 = biological target: T1, PPT1 (human, UniProt P50897)
T1 construct: expressed in transfected HEK293 cells
T1 sequence (looked up): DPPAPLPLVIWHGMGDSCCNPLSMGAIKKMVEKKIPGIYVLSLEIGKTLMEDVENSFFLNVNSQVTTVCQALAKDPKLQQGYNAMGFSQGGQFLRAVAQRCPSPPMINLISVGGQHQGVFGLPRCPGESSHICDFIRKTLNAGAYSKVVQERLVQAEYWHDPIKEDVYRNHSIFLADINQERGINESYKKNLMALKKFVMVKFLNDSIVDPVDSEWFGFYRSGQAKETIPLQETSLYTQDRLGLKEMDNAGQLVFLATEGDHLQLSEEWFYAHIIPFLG
Description: (§1) Transfection of all plasmids was confirmed by screening for the co-encoded marker ZS green (FIG. 13A).
(§2) Primary hits (duplicate spots) were identified by analysing fluorescence (AF647 and ZsGreenl) on ImageQuant. Vectors encoding all hits were sequenced to confirm their correct identities. […] Slides were analysed as above.

BAIAP2L2 = biological target: T2, BAIAP2L2 (human, UniProt Q6UXY1)
T2 construct: expressed in transfected HEK293 cells
T2 sequence (looked up): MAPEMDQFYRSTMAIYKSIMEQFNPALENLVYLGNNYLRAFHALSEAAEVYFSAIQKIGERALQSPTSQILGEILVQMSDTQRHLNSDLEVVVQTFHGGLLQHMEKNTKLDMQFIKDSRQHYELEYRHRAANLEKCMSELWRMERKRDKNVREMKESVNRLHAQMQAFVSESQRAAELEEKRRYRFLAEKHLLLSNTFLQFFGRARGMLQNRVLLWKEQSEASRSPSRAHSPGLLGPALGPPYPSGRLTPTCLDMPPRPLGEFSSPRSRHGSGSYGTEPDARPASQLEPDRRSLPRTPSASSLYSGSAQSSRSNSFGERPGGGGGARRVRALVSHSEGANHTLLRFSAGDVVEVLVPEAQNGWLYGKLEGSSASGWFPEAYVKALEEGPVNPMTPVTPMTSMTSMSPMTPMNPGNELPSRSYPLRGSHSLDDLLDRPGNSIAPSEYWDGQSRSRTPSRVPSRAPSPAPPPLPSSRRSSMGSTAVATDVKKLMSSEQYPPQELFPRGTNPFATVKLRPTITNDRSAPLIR
Description: as §1, §2

COL23A1 = biological target: T3, COL23A1 (human, UniProt Q86Y22)
T3 construct: expressed in transfected HEK293 cells
Description: as §1, §2

PSAPL1 = biological target: T4, PSAPL1 (human, UniProt Q6NUJ1)
T4 construct: expressed in transfected HEK293 cells
T4 sequence (looked up): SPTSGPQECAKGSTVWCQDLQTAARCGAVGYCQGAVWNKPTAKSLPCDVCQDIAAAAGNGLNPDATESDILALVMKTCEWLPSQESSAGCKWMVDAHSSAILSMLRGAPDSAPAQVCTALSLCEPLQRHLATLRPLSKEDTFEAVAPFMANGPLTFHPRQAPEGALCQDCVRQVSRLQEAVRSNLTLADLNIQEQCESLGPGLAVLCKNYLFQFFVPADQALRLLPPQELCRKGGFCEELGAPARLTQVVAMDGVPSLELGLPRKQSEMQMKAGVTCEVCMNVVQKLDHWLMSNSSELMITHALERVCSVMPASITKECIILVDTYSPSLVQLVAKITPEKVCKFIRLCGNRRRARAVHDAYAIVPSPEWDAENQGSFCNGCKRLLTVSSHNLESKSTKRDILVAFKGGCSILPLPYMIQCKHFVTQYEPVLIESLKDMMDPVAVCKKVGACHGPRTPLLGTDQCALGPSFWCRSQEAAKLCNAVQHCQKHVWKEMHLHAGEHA
Description: as §1, §2

ANXA6 = biological target: T5, ANXA6 (human, UniProt P08133)
T5 construct: expressed in transfected HEK293 cells
T5 sequence (looked up): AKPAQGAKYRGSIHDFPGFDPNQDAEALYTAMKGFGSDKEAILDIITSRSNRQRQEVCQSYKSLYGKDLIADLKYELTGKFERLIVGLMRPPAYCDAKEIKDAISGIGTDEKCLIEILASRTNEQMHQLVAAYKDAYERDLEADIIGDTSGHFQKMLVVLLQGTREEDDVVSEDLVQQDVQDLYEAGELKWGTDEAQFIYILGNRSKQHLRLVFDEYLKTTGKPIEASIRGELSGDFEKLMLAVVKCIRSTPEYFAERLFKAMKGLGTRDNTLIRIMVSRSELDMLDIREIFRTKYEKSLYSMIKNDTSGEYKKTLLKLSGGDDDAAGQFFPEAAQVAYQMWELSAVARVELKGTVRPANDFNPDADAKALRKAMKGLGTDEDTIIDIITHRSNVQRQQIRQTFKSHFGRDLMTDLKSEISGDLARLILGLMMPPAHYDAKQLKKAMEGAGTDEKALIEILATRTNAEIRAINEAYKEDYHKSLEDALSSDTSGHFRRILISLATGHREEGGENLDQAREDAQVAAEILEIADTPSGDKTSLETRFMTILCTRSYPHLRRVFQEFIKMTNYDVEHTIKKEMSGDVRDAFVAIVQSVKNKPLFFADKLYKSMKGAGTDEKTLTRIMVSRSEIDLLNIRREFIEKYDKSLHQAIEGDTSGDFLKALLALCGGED
Description: as §1, §2

TGM2 = biological target: T6, TGM2 (human, UniProt P21980)
T6 construct: expressed in transfected HEK293 cells
T6 sequence (looked up): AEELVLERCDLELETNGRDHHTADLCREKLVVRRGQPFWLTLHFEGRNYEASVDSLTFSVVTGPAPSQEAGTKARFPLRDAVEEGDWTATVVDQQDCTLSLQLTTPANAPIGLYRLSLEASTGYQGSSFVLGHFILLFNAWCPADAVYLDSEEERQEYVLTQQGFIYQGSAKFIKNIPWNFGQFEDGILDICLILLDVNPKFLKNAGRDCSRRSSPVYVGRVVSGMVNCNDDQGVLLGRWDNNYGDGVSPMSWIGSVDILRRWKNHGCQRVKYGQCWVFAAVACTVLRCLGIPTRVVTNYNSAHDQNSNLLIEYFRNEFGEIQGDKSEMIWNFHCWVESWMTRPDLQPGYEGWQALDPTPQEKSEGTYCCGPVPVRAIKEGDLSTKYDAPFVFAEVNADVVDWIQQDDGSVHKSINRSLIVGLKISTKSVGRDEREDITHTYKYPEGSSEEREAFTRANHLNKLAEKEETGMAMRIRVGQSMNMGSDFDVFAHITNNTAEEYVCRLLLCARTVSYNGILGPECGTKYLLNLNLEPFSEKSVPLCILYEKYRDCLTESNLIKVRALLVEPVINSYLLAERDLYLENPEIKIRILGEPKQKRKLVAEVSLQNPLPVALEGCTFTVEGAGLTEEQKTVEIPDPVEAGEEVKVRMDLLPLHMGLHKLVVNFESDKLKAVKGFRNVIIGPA
Description: as §1, §2

Measured: binding result

T3 sequence (Q86Y22 whole entry): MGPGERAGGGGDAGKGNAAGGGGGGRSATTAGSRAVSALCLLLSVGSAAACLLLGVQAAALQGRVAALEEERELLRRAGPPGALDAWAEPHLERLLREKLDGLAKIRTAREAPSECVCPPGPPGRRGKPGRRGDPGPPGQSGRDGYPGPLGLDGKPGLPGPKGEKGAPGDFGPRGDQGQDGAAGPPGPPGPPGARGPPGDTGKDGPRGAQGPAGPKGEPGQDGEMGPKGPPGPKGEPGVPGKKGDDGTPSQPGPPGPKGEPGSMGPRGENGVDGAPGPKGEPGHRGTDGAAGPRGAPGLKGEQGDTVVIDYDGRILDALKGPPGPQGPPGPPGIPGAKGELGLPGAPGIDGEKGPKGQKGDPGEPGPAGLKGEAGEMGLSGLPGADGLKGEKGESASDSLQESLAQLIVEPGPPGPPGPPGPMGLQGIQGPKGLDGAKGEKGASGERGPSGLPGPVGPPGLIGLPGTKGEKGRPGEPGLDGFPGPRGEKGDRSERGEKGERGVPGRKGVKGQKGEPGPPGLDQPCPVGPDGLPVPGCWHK

B1: MH1, human IgG1 (antibody, V domains shown)
VH: QVQLVQSGAEVKKPGASVKVSCKASGYTFTDYYMNWVRQAPGQGLEWMGRIYPGSGNTYYAQKFQGRVTMTRDTSTSTVYMELSSLRSEDTAVYYCARGVYYYDYWGQGTLVTVSS
VL: DIQMTQSPSSLSASVGDRVTITCRASQGIRTNLAWFQQKPGKAPKSLIYAASSLQSGVPSRFSGSGSGTDFTLTISSLQPEDFATYYCQQYNSYPRTFGGGTKVEIK
notes: IgG1; also called IgG1-MH1
no binding (tested: 2 µg/ml): all assays above
